Laboratory results: patent publication US20250250360A1 (CCBIOTECH, published 2025)

Biological target: T1, sulfatase 1 (SULF1) antigen
T1 construct: also called antigen peptide
T1 peptide: CNPRPKNLDVGNKDGGSYD
Assay: indirect ELISA, antigen coated on plate, HRP-labeled secondary antibody, A450 nm
From the text: This embodiment is directed to two antibodies (anti-GALNS specific antibody and anti-SULF1 specific antibody) and analyzes their specificity to the target proteins under different concentrations of antigen. The indirect ELISA detection method was used to conduct antibody specificity analysis, compare the specificity performance of antibodies to different concentrations of antigens, and BSA was used as the background control group for evaluation. The antigen was coated on a 96-well ELISA plate, the test antibody and the HRP-labeled secondary antibody were added for reaction, and the absorbance value was measured using a 450 nm wavelength microplate reader.

B1: anti-sulfatase 1 (SULF1) specific antibody (antibody, V domains shown)
VH: EVKLQESGAELVKPGASVKMSCKASGYTFTSYWMHWVKQRPGQGLEWIGTIDPSDSYTSYNQKFKGKATLTVDTSSSTAYMQLSSLTSEDSAVYYCTRGEYGNAMDYWGQGTSVTVSS
VL: DIVLTQTPSYLAASPGETITINCRASKSISKYLAWYQEKPGKTNKLLIYSGSTLQSGIPSRFSGSGSGTDFTLTISSLEPEDFAMYYCQQHNEYPYTFGGGTKLEIKR
notes: also called anti-SULF1 specific antibody; anti-Sulf1 specific antibody
B1: binds.
